Results reported in PMC8889352.

Molecular target: IL-12 receptor

Chain of 18/12/TxM triple-cytokine fusion protein (Q13261 whole entry, looked up, the tested form may be a part): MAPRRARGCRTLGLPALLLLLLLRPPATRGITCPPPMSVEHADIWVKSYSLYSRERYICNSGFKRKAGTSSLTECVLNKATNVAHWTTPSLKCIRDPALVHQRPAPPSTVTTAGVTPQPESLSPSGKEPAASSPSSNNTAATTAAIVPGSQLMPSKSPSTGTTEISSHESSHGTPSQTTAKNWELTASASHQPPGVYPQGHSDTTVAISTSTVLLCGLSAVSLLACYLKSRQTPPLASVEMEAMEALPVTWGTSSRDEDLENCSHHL
Chain of 18/12/TxM triple-cytokine fusion protein (P29459 whole entry, looked up, the tested form may be a part): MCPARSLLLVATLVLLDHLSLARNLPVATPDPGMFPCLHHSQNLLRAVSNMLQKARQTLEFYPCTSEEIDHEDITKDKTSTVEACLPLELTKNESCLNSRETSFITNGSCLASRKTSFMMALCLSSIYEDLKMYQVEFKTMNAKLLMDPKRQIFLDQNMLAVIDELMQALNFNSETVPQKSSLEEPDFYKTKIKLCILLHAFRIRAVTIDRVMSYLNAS
Chain of 18/12/TxM triple-cytokine fusion protein (P29460 whole entry, looked up, the tested form may be a part): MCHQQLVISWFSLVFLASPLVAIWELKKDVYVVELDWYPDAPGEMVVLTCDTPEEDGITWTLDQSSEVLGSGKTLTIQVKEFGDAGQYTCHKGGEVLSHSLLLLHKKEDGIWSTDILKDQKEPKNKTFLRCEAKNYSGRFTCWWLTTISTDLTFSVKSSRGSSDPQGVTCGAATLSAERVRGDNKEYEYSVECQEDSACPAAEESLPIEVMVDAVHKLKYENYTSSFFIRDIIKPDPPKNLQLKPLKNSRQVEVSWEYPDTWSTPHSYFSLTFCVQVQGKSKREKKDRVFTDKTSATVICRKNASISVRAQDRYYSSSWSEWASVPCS
Chain of 18/12/TxM triple-cytokine fusion protein (Q14116 whole entry, looked up, the tested form may be a part): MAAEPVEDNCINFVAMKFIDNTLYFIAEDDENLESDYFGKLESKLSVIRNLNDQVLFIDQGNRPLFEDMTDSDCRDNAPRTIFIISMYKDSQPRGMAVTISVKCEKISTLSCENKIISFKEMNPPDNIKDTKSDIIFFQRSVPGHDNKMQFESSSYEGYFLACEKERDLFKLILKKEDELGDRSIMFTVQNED

“18/12/TxM triple-cytokine fusion protein (from UniProt Q14116 37-193; P29460 23-328; P29459 23-219; Q13261 31-95) (complex)” gave an activation of IL-12 reporter HEK-Blue (HEK12) cells (STAT4-inducible SEAP), EC50 of 99.1 pM.
